Publication PMC4140852 (PLoS Pathogens, 2014)

Biological target: the molecule itself
Test: cross-linking

B1: rAPRc_(99–231), intermediate of activation of RC1339/APRc (Aspartic Protease from Rickettsia conorii) soluble catalytic domain, C-terminal His-tag (domain or fragment)
chain: SALIPSYKWSTEVGEIIIARNRDGHFYINAFVNNVKIKFMVDTGASDIALTKEDAQKLGFDLTKLKYTRTYLTANGENKAAPITLNSVVIGKEFKNIKGHVGLGDLDISLLGMSLLERFKGFRIDKDLLILNY
notes: also called rAPRc99–231-His; APRc_(99–231)His; not shown: His6, C-terminal, kept
In the case of B1, the “stoichiometry N” value is reported as 2.

B2: rAPRc_(105–231), activation product derived from rAPRc_(99–231) by auto-processing (enzyme)
chain: YKWSTEVGEIIIARNRDGHFYINAFVNNVKIKFMVDTGASDIALTKEDAQKLGFDLTKLKYTRTYLTANGENKAAPITLNSVVIGKEFKNIKGHVGLGDLDISLLGMSLLERFKGFRIDKDLLILNY
With B2 the “stoichiometry N” value was 2.
